Measurements published in patent US20260015418A1 (ABL BIO, published 2026).
Positions count from the first letter of the chain named. In names and notes the source's numbering stands. Several values for one entry are separate records, joined by “and”; a condition that tells them apart may be missing. Identical values can stand only once. One block for each binder: values may come before it.

Experiments:
[1] = target: T1, human ROR1 protein (ROR1-His; Sino Biological, Catalog #13968-H08H) (human, UniProt Q01973 30-406); assay: SACE ELISA on human ROR1-His
T1 construct: extracellular domain; Bought protein; also called human recombinant ROR1 protein
Description: (§1) The binding affinity of the anti-ROR1 antibody-antigen was evaluated using an ELISA-based solution binding assay. Specifically, 96-well microtiter plates (Nunc-Immuno Plates, NUNC) were coated with ROR1 protein (ROR1-His; sino biological, Catalog #13968-H08H) at a concentration of 1 μg/ml in PBS solution at 4° C. for 16 hours, and non-specific binding sites were blocked with 1% (v/v) BSA (bovine serum albumin) for 2 hours.
(§2) Subsequently, on the 96-well microtiter plates, anti-ROR1 antibodies at concentrations stated in FIGS. 1a to 1c were added to the microtiter plates, and their binding capabilities were analyzed by ELISA as follows. Specifically, after incubating at 37° C. for 2 hours, the plates were washed five times with PBS containing 0.05% (v/v) Tween 20, then the HRP-conjugated Fab polyclonal antibody reagent (Pierce, Catalog #31414) was diluted at a 1:30,000 ratio and added to the washed microtiter plates, then reacted for 1 hour at 37° C., then detected the bound anti-ROR1 antibodies. After reaction, the color was developed using TMB (tetramethylbenzidine, Sigma, T0440). The enzymatic reaction was stopped with 0.5 mol/L sulfuric acid, and the absorbance was read at 450 nm and 650 nm using a microplate reader (Molecular Devices). […]

[2] = target: T1, human ROR1 protein (ROR1-His; Sino …); assay: SACE ELISA on human ROR1-His; antibody stored 2 weeks at 37°C
Description: as §1, §2

[3] = target: T1, human ROR1 protein (ROR1-His; Sino …); assay: SACE ELISA on human ROR1-His; antibody stored 2 weeks at 4°C; BA6 IgG (WT), stored at 4° C.
Description: as §1, §2

[4] = target: T1, human ROR1 protein (ROR1-His; Sino …); assay: ELISA, plate coated with ROR1-His (1 ug/ml), bound antibody detected with HRP-conjugated anti-Fab polyclonal antibody, OD at 450 nm
Description: as §1
(§3) Subsequently, on the 96-well microtiter plates, anti-ROR1 antibodies at concentrations stated in FIGS. 1a to 1c were added to the microtiter plates, and their binding capabilities were analyzed by ELISA as follows. Specifically, after incubating at 37° C. for 2 hours, the plates were washed five times with PBS containing 0.05% (v/v) Tween 20, then the HRP-conjugated Fab polyclonal antibody reagent (Pierce, Catalog #31414) was diluted at a 1:30,000 ratio and added to the washed microtiter plates, then reacted for 1 hour at 37° C., then detected the bound anti-ROR1 antibodies. After reaction, the color was developed using TMB (tetramethylbenzidine, Sigma, T0440). The enzymatic reaction was stopped with 0.5 mol/L sulfuric acid, and the absorbance was read at 450 nm and 650 nm using a microplate reader (Molecular Devices).

[5] = target: T1, human ROR1 protein (ROR1-His; Sino …); assay: ELISA, plate coated with ROR1-His (1 ug/ml), bound antibody detected with HRP-conjugated anti-Fab polyclonal antibody, OD at 450 nm; lower graph and table
Description: as §1, §3

[6] = target: T1, human ROR1 protein (ROR1-His; Sino …); assay: ELISA, plate coated with ROR1-His (1 ug/ml), bound antibody detected with HRP-conjugated anti-Fab polyclonal antibody, OD at 450 nm; upper graph and table
Description: as §1, §3

[7] = target: T1, human ROR1 protein (ROR1-His; Sino …); assay: ELISA, plate coated with ROR1-His (1 ug/ml), bound antibody detected with HRP-conjugated anti-Fab polyclonal antibody, OD at 450 nm; lower graph and table; remark: listed apart in the source
Description: as §1, §3

[8] = target: T1, human ROR1 protein (ROR1-His; Sino …); assay: ELISA, plate coated with ROR1-His (1 ug/ml), bound antibody detected with HRP-conjugated anti-Fab polyclonal antibody, OD at 450 nm; upper graph and table; remark: listed apart in the source
Description: as §1, §3

[9] = target: T2, human B7-H3 on CHO-huROR1-huB7-H3 cells (human, UniProt Q5ZPR3 29-534); assay: flow cytometry on CHO-huROR1-huB7-H3 cells, FITC anti-human IgG, MFI over secondary antibody only
T2 construct: whole, on cells; also called cell surface B7-H3
T2 sequence (looked up): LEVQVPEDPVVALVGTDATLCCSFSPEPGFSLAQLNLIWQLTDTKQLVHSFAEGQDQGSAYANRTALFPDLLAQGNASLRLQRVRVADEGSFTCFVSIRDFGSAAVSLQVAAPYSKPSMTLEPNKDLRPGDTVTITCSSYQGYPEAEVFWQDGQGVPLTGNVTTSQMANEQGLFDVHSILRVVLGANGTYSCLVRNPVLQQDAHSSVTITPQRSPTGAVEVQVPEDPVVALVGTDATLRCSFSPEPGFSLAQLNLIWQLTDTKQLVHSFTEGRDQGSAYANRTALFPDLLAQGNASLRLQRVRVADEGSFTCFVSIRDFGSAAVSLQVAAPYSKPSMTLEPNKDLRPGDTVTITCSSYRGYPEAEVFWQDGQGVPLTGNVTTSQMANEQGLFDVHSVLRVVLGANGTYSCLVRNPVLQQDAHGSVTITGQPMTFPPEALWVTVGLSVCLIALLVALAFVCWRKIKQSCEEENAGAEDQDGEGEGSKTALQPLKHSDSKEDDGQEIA
Excerpt: (§4) To evaluate the cell-binding ability of the anti-ROR1/B7-H3 bispecific antibody, cells expressing both ROR1 and B7-H3 were used to compare the cell-binding ability of the bispecific antibody with that of the monospecific antibodies.
(§5) As a cell line for the comparison of cell-binding ability, CHO-huROR1-huB7-H3 cell line (obtained by transfecting the ROR1-CHO recombinant cell line (BPS Bioscience) with the human B7-H3 gene (Origene) and selecting for the desired gene-inserted single cells using G418), which stably transfected the human ROR1 and human B7-H3 gene to artificially overexpress both human ROR1 and human B7-H3 proteins were used, and analysis was performed using a flow cytometer (LSRFortessa X-20, BD Biosciences). Specifically, after dissociating and washing the overexpressing cell line with PBS, the cell number was counted, and the cells were seeded at a density of 2×10⁵ cells per well into a V-bottom 96-well plate (96 Well Plate-RV, Bioneer, 910D09). Antibodies diluted 4-fold starting from 100 nM in 1% BSA solution were added at 100 μL per well to the centrifuged cells and incubated at 4° C. for 1 hour. […] After the reaction, the cells were washed twice with the same buffer, resuspended in 100 μL of PBS, and analyzed using a FACS instrument. A total of 10,000 cells were detected per measurement, and the data was analyzed using FlowJo software. […]

[10] = target: T1, human ROR1 protein (ROR1-His; Sino …); assay: SACE ELISA on human ROR1-His; antibody stored 2 weeks at 4°C
Description: as §1, §2

[11] = target: T3, human ROR1 on cells (NCI-N87, CHOK1-hROR1, AGS, CHO-huROR1-huB7-H3) (human, UniProt Q01973 30-937); assay: flow cytometry on CHO-huROR1-huB7-H3 cells, FITC anti-human IgG, MFI over secondary antibody only
T3 construct: whole, on cells; also called cell surface ROR1
Excerpt: as §4, §5

[12] = target: T1, human ROR1 protein (ROR1-His; Sino …); assay: ELISA, plate coated with ROR1-His (1 ug/ml), bound antibody detected with HRP-conjugated anti-Fab polyclonal antibody, OD at 450 nm; upper table (the graph's legend names the third curve M8_N97G)
Description: as §1, §3

B1: BA6 antibody (WT) (antibody, V domains shown)
VH: EVQLLESGGGLVQPGGSLRLSCAASGFTFSNYDMSWVRQAPGKGLEWVSAIYHSGSSKYYADSVKGRFTISRDNSKNTLYLQMNSLRAEDTAVYYCARGGNGAWDTGFDYWGQGTLVTVSS
VL: QSVLTQPPSASGTPGQRVTISCSGSSSNIGSNDVSWYQQLPGTAPKLLIYYDNNRPSGVPDRFSGSKSGTSASLAISGLRSEDEADYYCGAWDDSLSGYVFGGGTKLTVL
notes: Anti-ROR1 antibody from WO2019-225992 A1, said to be based on IgG1; only the variable domains are tied to the monospecific IgG; also called BA6 IgG (WT); parental clone
Ratio (EC50, 4°C sample against 37°C sample) [1]: 83.1% | EC50 [2]: 0.261 nM | EC50 [3]: 0.217 nM | EC50 [4]: 0.293 nM | EC50 [5]: 0.293 nM | EC50 [6]: 0.707 nM | EC50 [7]: 0.215 nM | EC50 [8]: 1 nM

B3: B5 (antibody, V domains shown)
VH: EVQLLESGGGLVQPGGSLRLSCAASGFTFSDYAMSWVRQAPGKGLEWVSSISSGSGSIYYADSVKGRFTISRDNSKNTLYLQMNSLRAEDTAVYYCAKNLIPLDYWGQGTLVTVSS
VL: B1 VL with D33A, D52N, N53S, N54H, A91S, D94A, S97N, G98A
notes: also called anti-B7-H3 monospecific antibody B5; anti-B7-H3 antibody clone B5 (WO2019-226017 A1)
EC50 (read off the curve) [9]: ~1 nM

B6: M3 (PTM mutant of BA6 IgG) (antibody, V domains shown)
VH: B1 VH
VL: B1 VL with D52E
notes: IgG of BA6 with one mutation; Kabat L51
EC50 [4]: 0.333 nM | EC50 [6]: 0.478 nM | EC50 [7]: 0.189 nM | EC50 [8]: 0.755 nM

B7: M4 (PTM mutant of BA6 IgG) (antibody, V domains shown)
VH: B1 VH
VL: B1 VL with D52S
notes: as for B6
EC50 [4]: 10.2 nM

B8: M6 (PTM mutant of BA6 IgG) (antibody, V domains shown)
VH: B1 VH with G102V
VL: B1 VL
notes: IgG of BA6 with one CDRH3 mutation
EC50 [4]: 0.955 nM

B9: M2 (PTM mutant of BA6 IgG) (antibody, V domains shown)
VH: B1 VH
VL: B1 VL with D52T
notes: as for B6
EC50 [4]: 10.2 nM

B10: M8 (PTM mutant of BA6 IgG) (antibody, V domains shown)
VH: B1 VH with N101G
VL: B1 VL
notes: IgG of BA6 with one CDRH3 mutation; Kabat H97 (same column as M9)
EC50 [6]: 7.56 nM

B11: M5 (PTM mutant of BA6 IgG) (antibody, V domains shown)
VH: B1 VH with G102Y
VL: B1 VL
notes: as for B8
EC50 [4]: 3.27 nM

B13: M1 (PTM mutant of BA6 IgG) (antibody, V domains shown)
VH: B1 VH
VL: B1 VL with D52A
notes: IgG of BA6 with one mutation
EC50 [4]: 0.326 nM

B14: M7 (PTM mutant of BA6 IgG) (antibody, V domains shown)
VH: B1 VH with G102R
VL: B1 VL
notes: as for B8
EC50 [5]: 12.5 nM

Now from value to binder:

EC50 [5]: 0.299 nM
B2: BA6 IgG(NA) (antibody, V domains shown)
VH: B1 VH
VL: QSVLTQPPSASGTPGQRVTISCSGSSSNIGSNDVSWYQQLPGTAPKLLIYYDNNRPSGVPDRFSGSKSGTSASLAISGLRSEDEADYYCGAWDDSLSGYVFGGGTKLTVLG

Ratio (EC50, 4°C sample against 37°C sample) [1]: 129% | EC50 [10]: 0.166 nM | EC50 [2]: 0.129 nM | EC50 (read off the curve) [11]: ~0.7 nM | EC50 [7]: 0.144 nM and 0.133 nM
B4: BA6M11 anti-ROR1 antibody (IgG) (antibody, V domains shown)
VH: B1 VH with N101S
VL: B1 VL with D52E
notes: IgG form; also called BA6 IgG (M11); double mutant D51E (LC)+N97S (HC)

EC50 [6]: 2.76 nM
B5: M10 (PTM mutant of BA6 IgG) (antibody, V domains shown)
VH: B1 VH with N101Y
VL: B1 VL
notes: as for B10

EC50 [12]: 1.08 nM
B12: M9 (PTM mutant of BA6 IgG) (antibody, V domains shown)
VH: B1 VH with N101S
VL: B1 VL
notes: IgG of BA6 with one CDRH3 mutation; Kabat H97
